One block for each binder: values may come before it.
What was measured:
[1] = target: T1, human CCR2 (CC-Chemokine Receptor 2) (human, UniProt P41597 1-374); assay: flow cytometry on CHO-huCCR2 cells, PE anti-human IgG
T1 construct: whole, on cells; also called huCCR2; CHO-huCCR2
Description: The data in FIG. 1 illustrates in vitro data for cellular binding EC₅₀ measurements. […] In this example, CHO-CCR2 cells were lifted from culture flasks using non-enzymatic Cell Dissociation Buffer—PBS based (Life Technologies #13151-014). Cells were resuspended in FACS Buffer (2% Fetal Bovine Serum in PBS) at 1×10⁶ cells/ml and 100 μl (1×10⁵ cells) were aliquoted into the wells of a 96-well plate. Plated cells were spun down and the supernatant discarded. Cells were resuspended in 50 μl FACS Buffer containing the indicated concentrations of CCR2 D1 IgG in triplicate (FIG. 1). Plates were incubated for 1 hr at 4° C., then washed 1× with FACS Buffer. Cells were resuspended in 50 μl goat anti-human IgG (γ-chain specific)-PE conjugated secondary antibody (Southern Biotech #2040-09) diluted 1:500 in FACS Buffer. Cells were further incubated for 30 min at 4° C. and then washed 1× with FACS Buffer. The cells were resuspended in a final volume of 25 μl FACS Buffer and analyzed using the Intellicyt Flow Cytometer. Median fluorescence in the FL-2H channel was determined using FlowJo software and EC₅₀ value was determined by plotting the data in GraphPad Prism and analyzing using a variable slope non-linear regression.

murine CCR2 [2] = target: T2, murine CCR2 (murine, UniProt P51683 1-373); assay: cell-based or functional assay
[3] = target: T1, human CCR2 (CC-Chemokine Receptor 2); assay: cell-based or functional assay
murine CCR2 [4] = target: T2, murine CCR2; assay: flow cytometry on WEHI 274.1 cells (murine CCR2), PE anti-human IgG
Description: In this example, WEHI 274.1 cells were resuspended in FACS Buffer (2% Fetal Bovine Serum in PBS) at 1×10⁶ cells and […] of cell suspension was aliquoted into the wells of a 96-well plate. Plated cells were spun down and the supernatant discarded. Cells were resuspended in 30 μl FACS Buffer containing serially diluted anti-CCR2 IgGs in triplicate. Plates were incubated for 1 hr at 4° C., then washed 2× with FACS Buffer. Cells were resuspended in 50 μl goat anti-human IgG (γ-chain specific)-PE conjugated secondary antibody (Southern Biotech #2040-09) diluted 1:500 in FACS Buffer, incubated for 30 min at 4° C. and then washed 1× with FACS Buffer. The cells were resuspended in a final volume of 30 μl FACS Buffer and analyzed using the Intellicyt Flow Cytometer. Median fluorescence in the FL-2H channel was determined using FlowJo software and EC₅₀ values were determined by plotting the data in GraphPad Prism and analyzed using a variable slope non-linear regression.

[5] = target: T1, human CCR2 (CC-Chemokine Receptor 2); assay: cell-based or functional assay; remark: listed apart in the source
[6] = target: T1, human CCR2 (CC-Chemokine Receptor 2); assay: cell-based or functional assay; remark: listed apart in the source

T1 sequence (P41597 whole entry): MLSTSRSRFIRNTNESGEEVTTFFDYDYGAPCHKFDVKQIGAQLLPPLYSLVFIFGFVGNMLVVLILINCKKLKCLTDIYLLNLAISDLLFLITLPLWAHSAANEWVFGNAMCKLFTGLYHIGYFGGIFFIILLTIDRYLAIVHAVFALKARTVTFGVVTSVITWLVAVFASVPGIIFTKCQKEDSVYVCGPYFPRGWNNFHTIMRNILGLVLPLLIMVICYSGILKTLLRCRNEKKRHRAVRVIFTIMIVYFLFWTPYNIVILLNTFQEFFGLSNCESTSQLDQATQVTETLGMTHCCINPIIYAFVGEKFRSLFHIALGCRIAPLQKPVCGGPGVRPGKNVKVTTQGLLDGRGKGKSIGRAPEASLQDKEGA
T2 sequence (P51683 whole entry): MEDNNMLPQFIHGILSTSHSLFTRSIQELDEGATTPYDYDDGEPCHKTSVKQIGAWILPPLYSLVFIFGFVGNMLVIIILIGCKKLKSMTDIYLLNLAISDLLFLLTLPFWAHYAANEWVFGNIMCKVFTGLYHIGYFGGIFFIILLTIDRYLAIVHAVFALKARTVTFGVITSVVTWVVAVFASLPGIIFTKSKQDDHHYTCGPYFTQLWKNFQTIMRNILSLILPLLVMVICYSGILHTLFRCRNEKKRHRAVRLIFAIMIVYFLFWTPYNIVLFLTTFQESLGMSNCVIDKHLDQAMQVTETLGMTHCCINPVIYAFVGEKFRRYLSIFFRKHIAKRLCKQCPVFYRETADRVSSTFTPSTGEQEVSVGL

- EC50 [1]: 15 nM
B1: 42G7 (antibody, V domains shown)
VH: QVQLVQSGAEVKKPGASVKVSCKASGYTFSSYYMHWVRQAPGQGLEWMGIINPSGGNTSYAQKFQGRVTMTRDTSTSTVYMELSSLRSEDTAVYYCARGGYQLPHGRARAFDMWGQGTMVTVSS
VL: AIRMTQSPLSLPVTLGQPASISCTSSQSLVYRDGTTYLNWFQQRPGQSPRRLIYKVSNRDSGVPDRFTGSGSGTTFTLTISRVEAEDVGIYYCMQGTHWPLTFGQGTKVEI
notes: tested as IgG

- IC50 in chemotaxis assay using mouse WEHI cells, ligand mouse MCP-1 (0.7 nM) (murine CCR2 [2]): 35 pM
- IC50 in chemotaxis assay using human THP-1 cells, ligand MCP-1 (3 nM) [3]: 130 pM
- IC50 in chemotaxis assay using human THP-1 cells, ligand MCP-3 (1.1 nM) [3]: 100 pM
- EC50 (murine CCR2 [4]): 4.8 nM
- EC50 [1]: 0.13 nM
B2: D1-1/LO (antibody, V domains shown)
VH: QVQLVQSGAEVKKPGASVKVSCKASGYTFTGYYMHWVRQAPGQGLEWMGWINPNSGVTKYAQKFQGRVTMTRDTSTSTVYMELSSLRSEDTAVYYCATGGFGYWGEGTLVTVSS
VL: LPVLTQPPSVSKGLRQTATLTCTGNSNNVGNQGAAWLQQHQGQPPKLLSYRNHNRPSGVSERFSPSRSGDTSSLTITGLQPEDEADYYCLAWDSSLRAFVFGTGTKLTVL
notes: The suffix '/LO' is not explained

- IC50 in calcium flux assay using human THP-1 cells, ligand MCP-1 (2.5 nM) [5]: 920 pM
- IC50 in calcium flux assay using human THP-1 cells, ligand MCP-3 (22 nM) [5]: 290 pM
- IC50 in calcium flux assay using human THP-1 cells, ligand MCP-5 (0.43 nM) [5]: 890 pM
- IC50 in chemotaxis assay using human THP-1 cells, ligand MCP-1 (3 nM) [3]: 90 pM
- IC50 in chemotaxis assay using human THP-1 cells, ligand MCP-2 (6.7 nM) [3]: 60 pM
- IC50 in chemotaxis assay using human THP-1 cells, ligand MCP-3 (1.1 nM) [3]: 40 pM
- IC50 in chemotaxis assay using human THP-1 cells, ligand MCP-4 (35 nM) [3]: 50 pM
- IC50 in chemotaxis assay using human THP-1 cells, ligand MCP-5 (0.65 nM) [3]: 200 pM
- IC50 on MCP-1 (3 nM) induced THP-1 cell migration [6]: 87 pM
- IC50 on MCP-5 (3 nM) induced THP-1 cell migration [6]: 197 pM
- EC50 [1]: 0.36 nM
B3: 1B2 (antibody, human IgG1, V domains shown)
VH: EVQLVESGAEVKKPGASVKVSCKASGYTFTGYYMNWVRQAPGQGLEWMGWINPNSGGTKYAQKFQGRVTMTSDTSINTAYMELSRLRYDDTAVYYCATGGFQHWGQGTLVTVSS
VL: LPVLTQPPSVSKGLRQTATLTCTGNSNNVGNQGAAWLQQHQGQPPKLLSYRNHNRPSGVSERFSPSRSGDTSSLTITGLQPEDEADYYCLAWDSSLRAFVFGTGTKLTVL

- EC50 [1]: 0.08 nM
B4: D1-7/LO (antibody, V domains shown)
VH: QVQLVQSGAEVKKPGASVKVSCKASGYTFTGYYMHWVRQAPGQGLEWMGWINPNSGVTKYAQKFQGRVTMTRDTSTSTVYMELSSLRSEDTAVYYCATGSGGGTMDVWGEGTLVTVSS
VL: LPVLTQPPSVSKGLRQTATLTCTGNSNNVGNQGAAWLQQHQGQPPKLLSYRNHNRPSGVSERFSPSRSGDTSSLTITGLQPEDEADYYCLAWDSSLRAFVFGTGTKLTVL
notes: tested as IgG. '/LO' not explained

- EC50 [1]: 2.3 nM
B5: 1B11 (antibody, V domains shown)
VH: QVQLVESGGGVVQPGRSLRLSCAASGFTFSSYAMHWVRQAPGKGLEWVAVISYDGSNKYYADSVKGRFTISRDNSKNTLYLQMNSLKAEDTAVYYCATAAAGPFDYWGQGTTVTVSS
VL: LPVLTQPPSVSKGLRQTATLTCTGNSNNVGNQGAAWLQQHQGQPPKLLSYRNHNRPSGVSERFSPSRSGDTSSLTITGLQPEDEADYYCLAWDSSLRAFVFGTGTKLTVL
notes: tested as IgG

- IC50 in calcium flux assay using human THP-1 cells, ligand MCP-1 (2.5 nM) [5]: 750 pM
- IC50 in calcium flux assay using human THP-1 cells, ligand MCP-3 (22 nM) [5]: 250 pM
- IC50 in calcium flux assay using human THP-1 cells, ligand MCP-5 (0.43 nM) [5]: 560 pM
- IC50 in chemotaxis assay using human THP-1 cells, ligand MCP-1 (3 nM) [3]: 80 pM
- IC50 in chemotaxis assay using human THP-1 cells, ligand MCP-2 (6.7 nM) [3]: 160 pM
- IC50 in chemotaxis assay using human THP-1 cells, ligand MCP-3 (1.1 nM) [3]: 70 pM
- IC50 in chemotaxis assay using human THP-1 cells, ligand MCP-4 (35 nM) [3]: 60 pM
- IC50 in chemotaxis assay using human THP-1 cells, ligand MCP-5 (0.65 nM) [3]: 260 pM
- IC50 on MCP-1 (3 nM) induced THP-1 cell migration [6]: 79 pM
- IC50 on MCP-5 (6 ng/ml) induced THP-1 cell migration [6]: 261 pM
- EC50 [1]: 0.34 nM
B6: 1G11 (antibody, human IgG1, V domains shown)
VH: EVQLVESGAEVKKPGASVKVSCKASGYIFTGYYIHWVRQAPGQGLEWMGWINPNNGVTKYAEKFQGRVTMTRDTSITTAYMDLSRLRSDDTAIYYCATGGFEYWGQGTLVTVSS
VL: LPVLTQPPSVSKGLRQTATLTCTGNSNNVGNQGAAWLQQHQGQPPKLLSYRNHNRPSGVSERFSPSRSGDTSSLTITGLQPEDEADYYCLAWDSSLRAFVFGTGTKLTVL

- IC50 on MCP-1 (3 nM) induced THP-1 cell migration [6]: 109 pM
- IC50 on MCP-2 (30 ng/ml) induced THP-1 cell migration [6]: 1.9 nM
- IC50 on MCP-3 (6 ng/ml) induced THP-1 cell migration [6]: 2.6 nM
- IC50 on MCP-4 (200 ng/ml) induced THP-1 cell migration [6]: 1.4 nM
- IC50 on MCP-5 (6 ng/ml) induced THP-1 cell migration [6]: 349 pM
- EC50 [1]: 1.3 nM
B7: 1H5 (antibody, V domains shown)
VH: EVQLVQSGAEVKKPGASVKVSCKASGYTFTSYYMHWVRQAPGQGLEWMGIINPSGGSTSYAHKFQGRVTMTRDTSTSTVYMELSSLRSEDTAVYYCARGGHVLRFLEWLGLEGPFDYWGQGTLVTVSS
VL: LPVLTQPPSVSKGLRQTATLTCTGNSNNVGNQGAAWLQQHQGQPPKLLSYRNHNRPSGVSERFSPSRSGDTSSLTITGLQPEDEADYYCLAWDSSLRAFVFGTGTKLTVL
notes: tested as IgG

- EC50 [1]: 1.6 nM
B8: D1-4/LO (antibody, V domains shown)
VH: QVQLVQSGAEVKKPGASVKVSCKASGYTFTGYYMHWVRQAPGQGLEWMGIINPSGGSTSYAQKFQGRVTMTRDTSTSTVYMELSSLRSEDTAVYYCATGGFGYWGEGTLVTVSS
VL: LPVLTQPPSVSKGLRQTATLTCTGNSNNVGNQGAAWLQQHQGQPPKLLSYRNHNRPSGVSERFSPSRSGDTSSLTITGLQPEDEADYYCLAWDSSLRAFVFGTGTKLTVL
notes: as for B4

- EC50 (murine CCR2 [4]): 81 nM
- EC50 [1]: 16 nM
B9: D1-2/LO (antibody, V domains shown)
VH: QVQLVQSGAEVKKPGASVKVSCKASGYTFTGYHMHWVRQAPGQGLEWMGIINPSGGSTSYAQKFQGRVTMTRDTSTSTVYMELSSLRSEDTAVYYCATGGFGYWGEGTLVTVSS
VL: LPVLTQPPSVSKGLRQTATLTCTGNSNNVGNQGAAWLQQHQGQPPKLLSYRNHNRPSGVSERFSPSRSGDTSSLTITGLQPEDEADYYCLAWDSSLRAFVFGTGTKLTVL
notes: as for B4

- EC50 [1]: 3.5 nM
B10: D1-6/LO (antibody, V domains shown)
VH: QVQLVQSGAEVKKPGASVKVSCKASGYTFTGYHMHWVRQAPGQGLEWMGIINPSSGSTKYAQKFQGRVTMTRDTSTSTVYMELSSLRSEDTAVYYCATGGFGYWGEGTLVTVSS
VL: LPVLTQPPSVSKGLRQTATLTCTGNSNNVGNQGAAWLQQHQGQPPKLLSYRNHNRPSGVSERFSPSRSGDTSSLTITGLQPEDEADYYCLAWDSSLRAFVFGTGTKLTVL
notes: as for B4

- EC50 [1]: 2.9 nM
B11: 1A2 (antibody, V domains shown)
VH: EVQLVQSGAEVKKPGASVKVSCKASGYTFTSYYMHWVRQAPGQGLEWMGIINPSGGSTSYAQKFQGRVTMTRDTSTSTVYMELSSLRSEDTAVYYCATGSGGGTMDVWGQGTTVTVSS
VL: LPVLTQPPSVSKGLRQTATLTCTGNSNNVGNQGAAWLQQHQGQPPKLLSYRNHNRPSGVSERFSPSRSGDTSSLTITGLQPEDEADYYCLAWDSSLRAFVFGTGTKLTVL
notes: tested as IgG

- EC50 [1]: 1.8 nM
B12: 43D12 (antibody, V domains shown)
VH: EVQLVESGGGLVQPGGSLRLSCVASGFTFSDYWMSWVRQAPGKGLEWVANIKKDGSVNYYVDSVKGRFTISRDNAKNSLYLQMNSLRAEDTAVYYCTRFDYWGQGTLVTVSS
VL: QAGLTQPPSVSKGLRQTATLTCTGNSNNVGNQGAAWLQQHQGHPPKLLFYRNNNRASGISERLSASRSGNTASLTITGLQPEDEADYYCLTWDSSLSVVVFGGGTKLTVL
notes: tested as IgG; 27/28 '43D12'; the text calls the same pair '43G12'; also called 43G12

- EC50 [1]: 0.53 nM
B13: 54A9 (antibody, V domains shown)
VH: VQLVESGAEVKKPGASVKVSCKASGYTFSSHYMHWVRQAPGQGLEWMGIINPSGGSTIYAQKFQGRVTINADESTSTAYMELSSLGSDDTAVYYCARAAGGAVAGHGARFDYWGQGTLVTVSS
VL: LPVLTQPASVSGSPGQSITISCTGTSSDVGGYNYVSWYQQHPGKAPKLMIYDVSNRPSGVSNRFSGSKSGNTASLTISGLQAEDEADYYCSSYRRSSTLVFGGGTKLTVL
notes: tested as IgG

Source: patent US20130344070A1 (SORRENTO THERAPEUTICS, published 2013)
